Assay results published in patent US20230416394A1 (ELPISCIENCE SUZHOU BIOPHARMA, published 2023).
Where a chain is given by its changes, count along the chain named.

Experiments:
[1] = target: T1, human CD39 (human, UniProt P49961 1-510); test: FACS, MOLP-8 cells
T1 construct: full length human CD39 (NP_001767.3) on transfected CHOK1 cells, or native on SK-MEL-5, SK-MEL-28 and MOLP-8 cells; also called hCD39; ENTPD1
T1 sequence: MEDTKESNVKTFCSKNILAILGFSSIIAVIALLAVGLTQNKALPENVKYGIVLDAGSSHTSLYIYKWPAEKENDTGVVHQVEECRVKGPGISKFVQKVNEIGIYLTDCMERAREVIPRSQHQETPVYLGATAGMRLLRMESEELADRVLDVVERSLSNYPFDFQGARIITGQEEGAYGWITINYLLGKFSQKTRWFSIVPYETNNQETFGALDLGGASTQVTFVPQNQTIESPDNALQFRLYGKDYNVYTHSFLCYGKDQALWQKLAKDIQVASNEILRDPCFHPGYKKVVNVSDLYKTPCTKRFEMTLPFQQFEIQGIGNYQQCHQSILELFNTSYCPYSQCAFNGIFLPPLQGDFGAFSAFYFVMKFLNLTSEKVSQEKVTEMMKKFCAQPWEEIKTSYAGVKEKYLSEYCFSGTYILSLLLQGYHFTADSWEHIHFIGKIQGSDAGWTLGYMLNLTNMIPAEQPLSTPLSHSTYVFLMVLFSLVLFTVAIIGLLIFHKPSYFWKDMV

[2] = target: T1, human CD39; test: FACS, MOLP-8 cells, second set
[3] = target: T2, human TGFβ1 (human, UniProt P01137 279-390); test: ELISA, blocking of TGFβRII-His binding to coated TGFβ1
T2 construct: also called TGFβ peptide (TGFβ1); biotinylated TGFβ1
Procedure: For blocking assay, TGFβ peptide (TGFβ1) was coated on microplates. A serial dilution of purified antibodies was incubated with recombinant TGFβRII-His protein (SinoBiological) for 1 h in TGFβ1-coated plates. After wash, the remaining TGFβRII-His was detected by anti-His-HRP conjugated secondary antibody. The values of absorbance at 450 nm were read on a microtiter plate reader (Molecular Devices Corp) for the quantification of TGFβRII-His binding to TGFβ1. All the tested anti-CD39/TGFβ Trap molecules (i.e. ES014-1, ES014-2, ES014-3, ES014-6) could effectively block human TGFβ1 binding to the TGFβ receptor TGFβRII (FIG. 26, Soluble TGFβ trap (i.e. TGFβRII) was used as control). IC 50 values of the anti-CD39/TGFβ Trap molecules were analyzed using GraphPad Prism.

[4] = target: T2, human TGFβ1; test: ELISA, coated human TGFβ1
Procedure: To determine the binding ability and specificity of the anti-CD39/TGFβ Trap molecules, ELISA assays were conducted using human TGFβ1, human TGFβ2, human TGFβ3 as well as mouse TGFβ1. The tested antigens were coated on NUNC 96-well immunoplate at the concentration of 1 μg/ml. Binding with increasing concentrations of anti-CD39/TGFβ Trap molecules was measured with anti-human Fc antibody horseradish peroxidase conjugate diluted in PBT buffer, then developed with TMB substrate. Soluble TGFβ trap was used as control. As shown in FIGS. 25A-25C, the anti-CD39/TGFβ Trap molecules ES014-1 and ES014-2 bind to all three TGFβ homologues: human TGFβ1, TGFβ2 and TGFβ3. The binding assay results of the other tested anti-CD39/TGFβ Trap molecules (including ES014-3, ES014-4, ES014-5, ES014-6, ES014-7) were similar and not shown herein. Moreover, the anti-CD39/TGFβ Trap molecule ES014-1 binds to mouse TGFβ1 with similar affinity as for human TGFβ1 (FIG. 25D).

[5] = target: T1, human CD39; test: cell-based or functional assay
[6] = target: T1, human CD39; test: FACS, SK-MEL-28 cells
[7] = target: T1, human CD39; test: FACS, MOLP-8 cells; remark: listed apart in the source
[8] = target: T3, cynomolgus CD39 (cynomolgus monkey, UniProt A0A7N9DGH8 1-510); test: FACS, CHO-K1/cynoCD39 cells
T3 construct: whole, on cells; also called cyno CD39; CHOK1-cynoCD39
T3 sequence: T1 sequence with V47I, F94Y, V221I, I230T, I329V, K368N, A391S, F489V, T490I

[9] = target: T1, human CD39; test: FACS, SK-MEL-5 cells
[10] = target: T4, 6×His tagged human CD39 (human); test: Biacore, antibody captured, 6×His human CD39 as analyte, 1:1 model
T4 chain: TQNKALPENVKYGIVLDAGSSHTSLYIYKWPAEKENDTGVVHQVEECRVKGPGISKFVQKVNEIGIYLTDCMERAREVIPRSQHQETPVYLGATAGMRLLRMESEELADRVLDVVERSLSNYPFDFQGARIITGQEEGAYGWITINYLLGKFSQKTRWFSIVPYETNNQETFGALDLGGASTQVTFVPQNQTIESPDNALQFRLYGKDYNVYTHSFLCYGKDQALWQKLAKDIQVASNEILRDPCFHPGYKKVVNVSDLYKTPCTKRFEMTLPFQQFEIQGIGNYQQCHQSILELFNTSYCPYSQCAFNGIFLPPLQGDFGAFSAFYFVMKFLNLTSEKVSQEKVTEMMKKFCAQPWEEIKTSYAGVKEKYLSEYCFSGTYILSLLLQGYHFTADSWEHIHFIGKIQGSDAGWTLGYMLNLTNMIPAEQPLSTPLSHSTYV
Procedure: In particular, humanized antibodies hu23.H5L5, hu23.201, hu14.H1L1 and reference antibodies I394 and T895 were characterized for binding affinity against human CD39 using Biacore (GE). Briefly the antibodies to be tested were captured to […] (GE) using Human Antibody Capture Kit (GE). The antigen of 6×His tagged human CD39 was serially diluted for multiple doses and injected at 30 μl/min for 180 s. Buffer flow was maintained for dissociation of 400 s. 3 M MgCl₂ was used for chip regeneration. The association and dissociation curves were fit with 1:1 binding model, and the Ka/Kd/KD values for each antibody were calculated.

T2 sequence (P01137 279-390 limits assumed): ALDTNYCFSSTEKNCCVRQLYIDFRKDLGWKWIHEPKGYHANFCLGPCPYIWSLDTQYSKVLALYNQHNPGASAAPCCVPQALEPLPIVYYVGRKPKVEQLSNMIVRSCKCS

B1: hu23.H3L1 (antibody, V domains shown)
VH: QVQLVQSGAEVKKPGASVKLSCKASGYNLKDTFLHWVRQAPGQGLEWIGRIDPANGNIKYDPKFQGRATITADTSASTAYMELSSLRSEDTAVYYCANSPYYYGSGYRIFDVWGQGTTVTVSS
VL: EIVLTQSPATLSLSPGERATLSCSAFSSVNYMHWYQQKPGQAPRLLIYTTSNLASGIPARFSGSGSGTDFTLTISSLEPEDFAVYYCQQRSTYPFTFGQGTKLEIK
B1 gave an EC50 [1] of roughly 15.4 nM.

B2: hu23.H1L1 (antibody, V domains shown)
VH: B1 VH with L20V, G44R, I48M, A68V, A72R, N98R
VL: B1 VL
With B2 the EC50 [2] was roughly 78.2 nM.

B3: Soluble TGFβ trap (i.e. TGFβRII) (receptor, UniProt P37173 24-159, looked up)
chain: IPPHVQKSVNNDMIVTDNNGAVKFPQLCKFCDVRFSTCDNQKSCMSNCSITSICEKPQEVCVAVWRKNDENITLETVCHDPKLPYHDFILEDAASPKCIMKEKKKPGETFFMCSCSSDECNDNIIFSEEYNTSNPD
notes: construct not described; also called TGFβ trap control
With B3 the IC50 [3] was 0.58 nM and the EC50 [4] was 0.017 nM.

B4: I394 (antibody, V domains shown)
VH: QVQLVQSGAEVKKPGASVKVSCKASGYTFKSYEMHWVRQAPGQGLEWMGRINPSVGSTWYAQKFQGRVTMTRDTSTSTVYMELSSLRSEDTAVYYCARGKREGGTEYLRKWGQGTLVTVSS
VL: EIVLTQSPGTLSLSPGERATLSCRASQSVASSYLAWYQQKPGQAPRLLIYGASNRHTGIPDRFSGSGSGTDFTLTISRLEPEDFAVYYCQQYHNAITFGGGTKVEIK
B4 was tested, and the “ATPase activity inhibition (IC50), MOLP-8 cells” value [5] was 0.21 nM, the “ATPase activity inhibition (IC50), SK-MEL-5 cells” value [5] was 0.1 nM and the EC50 [6] was 0.94 nM. The EC50 [7] was 0.11 nM, the EC50 [8] was 2.71 nM and the EC50 [9] was 0.49 nM.

B5: hu14.H1L1 (antibody, V domains shown)
VH: EVQLVESGGGLVKPGGSLRLSCAASGFTFSKYWMNWVRQAPGKGLEWVGEIRLKSNKYGTHYAESVKGRFTISRDDSKNTLYLQMNSLKTEDTAVYYCTTQLDLYWFFDVWGQGTTVTVSS
VL: EIVLTQSPATLSLSPGERATLSCRASQSISDYLHWYQQKPGQAPRLLIYYASQSISGIPARFSGSGSGTDFTLTISSLEPEDFAVYYCQNGHSLPLTFGGGTKLEIK
In the case of B5, the Kd [10] is reported as 5.03 nM, the koff [10] is reported as 0.00455 s⁻¹ and the kon [10] is reported as 903000 M⁻¹ s⁻¹.
